Here are results for one molecule from paper PMC7483680 (Experimental parasitology, 2020).

For the assay, the target named is T1, recombinant GST-tagged wild-type Toxoplasma gondii GCN5b bromodomain (BRD) (Toxoplasma gondii, UniProt S8F3V2 877-986).
T1 sequence (looked up): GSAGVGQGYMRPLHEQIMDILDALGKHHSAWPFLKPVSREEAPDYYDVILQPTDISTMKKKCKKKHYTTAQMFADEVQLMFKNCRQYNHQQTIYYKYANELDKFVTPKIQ
The assay can be described thus: pull-down.

Consider SGRGKGGKGLGKGGAKRH (peptide, UniProt P62805 2-19, looked up, acetyl-lysine at K5, K8, K12 and K16; biotin (position not given)) [biotinylated tetra-acetylated histone H4 peptide (K5/8/12/16), residues 1-18 of human histone H4], for which the binding result was “binds”.
